Reference: the supplement of paper PMC10126150
± gives the standard deviation of the averaged measurements.

Test system: ATP
Test: switch fluorescence ratio, 500 uM ATP over buffer (Cy3 cluster intensity, sum of 5 cycles each) (fold (ratio)); higher = stronger signal-on switching upon ATP binding; sequences stand for … in TCGTCGGCAGCGTCAGATGTGTATAAGAGACAGTTTTTTTTTTTTTTTTTTTTTTTTT…TC
Conditions: aptamer strand: ATP DNA aptamer (quencher-CACCTGGGGGAGTATTGCGGAGGAAGG + anchor), 100 nM annealed; ATP concentration: 500 uM
How it was run: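 The fluorescence ratio divides summed target-cycle Cy3 intensity by summed buffer-cycle Cy3 intensity for each cluster and is averaged per switch-domain sequence. Cy3-labelled switching-strand clusters on a modified Illumina MiSeq flow-cell were annealed to 100 nM quencher-labelled ATP aptamer, then imaged in selection buffer and again after 15 min with 500 uM ATP at 22 °C. Five such cycles were run, with NaOH stripping and re-annealing between them, and clusters outside 100-1000 RFU were excluded.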
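Note: ATP exposure 15 min at 22 °C before imaging.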

Question: Which switch fluorescence ratio does the source give for TTCTAAGGGA here?
Answer: 1.01 ± 0.023

Question: How did the switch fluorescence ratio turn out when TTCTAAGGTC was run?
Answer: 0.978 ± 0.036

Question: With TTCTAATCCG as the sequence, how does the switch fluorescence ratio read?
Answer: 1.036 ± 0.0091

Question: How did the switch fluorescence ratio turn out when TTCTACGGGC was run?
Answer: 1.11 ± 0.025

Question: TTCTACTAGT was tested. Which switch fluorescence ratio did it give?
Answer: 0.98 ± 0.024

Question: Which switch fluorescence ratio does the source give for TTCTATAATT here?
Answer: 1.03 ± 0.02

Question: How did the switch fluorescence ratio turn out when TTCTATATTT was run?
Answer: 1.01 ± 0.055

Question: TTCTATGGAA was tested. Which switch fluorescence ratio did it give?
Answer: 1.01 ± 0.016

Question: Which switch fluorescence ratio does the source give for TTCTATGGTG here?
Answer: 1 ± 0.04

Question: How did the switch fluorescence ratio turn out when TTCTATTTGA was run?
Answer: 1.0138 ± 0.00028

Question: TTCTCAATGT was tested. Which switch fluorescence ratio did it give?
Answer: 1.08 ± 0.14

Question: For TTCTCAGGGG, which switch fluorescence ratio is on record?
Answer: 1.12 ± 0.038

Question: Which switch fluorescence ratio does the source give for TTCTCAGTTT here?
Answer: 1.15 ± 0.22

Question: For TTCTCATTGG, which switch fluorescence ratio is on record?
Answer: 0.9893 ± 0.0039

Question: How did the switch fluorescence ratio turn out when TTCTCGGCCC was run?
Answer: 1.11 ± 0.019

Question: Which switch fluorescence ratio does the source give for TTCTCGTTCT here?
Answer: 0.996 ± 0.045

Question: How did the switch fluorescence ratio turn out when TTCTGAAACA was run?
Answer: 0.969 ± 0.036

Question: How did the switch fluorescence ratio turn out when TTCTGAGAAT was run?
Answer: 1.042 ± 0.0044

Question: With TTCTGCGTAT as the sequence, how does the switch fluorescence ratio read?
Answer: 1.01 ± 0.036

Question: With TTCTGCTATC as the sequence, how does the switch fluorescence ratio read?
Answer: 1.79 ± 0.12

Question: TTCTGGAAAT was tested. Which switch fluorescence ratio did it give?
Answer: 0.994 ± 0.016

Question: With TTCTGGCAAT as the sequence, how does the switch fluorescence ratio read?
Answer: 2.97 ± 0.14

Question: TTCTGTACGG was tested. Which switch fluorescence ratio did it give?
Answer: 1.02 ± 0.014

Question: Which switch fluorescence ratio does the source give for TTCTGTAGCG here?
Answer: 1.06 ± 0.13

Question: With TTCTGTGTGG as the sequence, how does the switch fluorescence ratio read?
Answer: 0.981 ± 0.011

Question: Which switch fluorescence ratio does the source give for TTCTGTTATC here?
Answer: 1.023 ± 0.0087

Question: For TTCTGTTTTA, which switch fluorescence ratio is on record?
Answer: 1.05 ± 0.021

Question: TTCTTAGATG was tested. Which switch fluorescence ratio did it give?
Answer: 1.016 ± 0.0088

Question: For TTCTTAGCCG, which switch fluorescence ratio is on record?
Answer: 1.0545 ± 0.00031

Question: For TTCTTAGGGA, which switch fluorescence ratio is on record?
Answer: 0.9863 ± 0.0054

Question: How did the switch fluorescence ratio turn out when TTCTTCGACA was run?
Answer: 1.08 ± 0.034

Question: TTCTTGGAAT was tested. Which switch fluorescence ratio did it give?
Answer: 0.969 ± 0.049

Question: For TTCTTGGGAT, which switch fluorescence ratio is on record?
Answer: 1 ± 0.019

Question: TTCTTGTCGG was tested. Which switch fluorescence ratio did it give?
Answer: 0.984 ± 0.027

Question: TTCTTTACGG was tested. Which switch fluorescence ratio did it give?
Answer: 0.986 ± 0.026

Question: How did the switch fluorescence ratio turn out when TTCTTTAGGG was run?
Answer: 1.16 ± 0.26

Question: How did the switch fluorescence ratio turn out when TTCTTTATGT was run?
Answer: 0.999 ± 0.021

Question: Which switch fluorescence ratio does the source give for TTCTTTGGAT here?
Answer: 1.03 ± 0.028

Question: Which switch fluorescence ratio does the source give for TTCTTTGGCT here?
Answer: 0.977 ± 0.018

Question: How did the switch fluorescence ratio turn out when TTCTTTTACT was run?
Answer: 1.01 ± 0.023

Question: How did the switch fluorescence ratio turn out when TTCTTTTTAG was run?
Answer: 0.9793 ± 0.0051

Question: TTGAAAAATG was tested. Which switch fluorescence ratio did it give?
Answer: 1.03 ± 0.028

Question: Which switch fluorescence ratio does the source give for TTGAAACAGA here?
Answer: 0.985 ± 0.038

Question: For TTGAAAGGGG, which switch fluorescence ratio is on record?
Answer: 0.996 ± 0.083

Question: With TTGAAAGTTC as the sequence, how does the switch fluorescence ratio read?
Answer: 1 ± 0.077

Question: Which switch fluorescence ratio does the source give for TTGAAATAAT here?
Answer: 1.1 ± 0.14

Question: TTGAAGAAAC was tested. Which switch fluorescence ratio did it give?
Answer: 1.04 ± 0.018

Question: Which switch fluorescence ratio does the source give for TTGAAGCAAA here?
Answer: 1.44 ± 0.37

Question: With TTGAAGGAGA as the sequence, how does the switch fluorescence ratio read?
Answer: 1.01 ± 0.021

Question: How did the switch fluorescence ratio turn out when TTGAAGGCTT was run?
Answer: 0.997 ± 0.013

Question: With TTGAAGTAGC as the sequence, how does the switch fluorescence ratio read?
Answer: 1.01 ± 0.044

Question: Which switch fluorescence ratio does the source give for TTGAATAAGA here?
Answer: 1 ± 0.071

Question: With TTGAATCAAG as the sequence, how does the switch fluorescence ratio read?
Answer: 1.01 ± 0.041

Question: With TTGAATCCAT as the sequence, how does the switch fluorescence ratio read?
Answer: 1.01 ± 0.019

Question: How did the switch fluorescence ratio turn out when TTGAATTAAC was run?
Answer: 1.03 ± 0.06

Question: With TTGAATTCGG as the sequence, how does the switch fluorescence ratio read?
Answer: 0.9841 ± 0.0039

Question: With TTGAATTTGG as the sequence, how does the switch fluorescence ratio read?
Answer: 0.9794 ± 0.0085

Question: Which switch fluorescence ratio does the source give for TTGAATTTTC here?
Answer: 1.02 ± 0.061

Question: Which switch fluorescence ratio does the source give for TTGACAGCGA here?
Answer: 1.22 ± 0.061

Question: With TTGACAGGCA as the sequence, how does the switch fluorescence ratio read?
Answer: 0.968 ± 0.012

Question: TTGACATGGG was tested. Which switch fluorescence ratio did it give?
Answer: 1 ± 0.029

Question: With TTGACGGGAG as the sequence, how does the switch fluorescence ratio read?
Answer: 0.997 ± 0.027

Question: For TTGACGTAAA, which switch fluorescence ratio is on record?
Answer: 1.61 ± 0.56

Question: TTGACGTTGC was tested. Which switch fluorescence ratio did it give?
Answer: 1.01 ± 0.033

Question: TTGAGAATCC was tested. Which switch fluorescence ratio did it give?
Answer: 1.007 ± 0.0087

Question: How did the switch fluorescence ratio turn out when TTGAGAGATT was run?
Answer: 1.011 ± 0.0091

Question: For TTGAGAGGAG, which switch fluorescence ratio is on record?
Answer: 0.98 ± 0.02

Question: How did the switch fluorescence ratio turn out when TTGAGATTAT was run?
Answer: 0.986 ± 0.015

Question: Which switch fluorescence ratio does the source give for TTGAGATTGG here?
Answer: 0.998 ± 0.03

Question: Which switch fluorescence ratio does the source give for TTGAGCACGG here?
Answer: 0.998 ± 0.019

Question: Which switch fluorescence ratio does the source give for TTGAGCAGCT here?
Answer: 1.08 ± 0.085

Question: How did the switch fluorescence ratio turn out when TTGAGGCAGG was run?
Answer: 1.027 ± 0.0065

Question: For TTGAGGCCCA, which switch fluorescence ratio is on record?
Answer: 1.17 ± 0.22

Question: For TTGAGGCCTT, which switch fluorescence ratio is on record?
Answer: 1.01 ± 0.022

Question: With TTGAGGGCTT as the sequence, how does the switch fluorescence ratio read?
Answer: 0.998 ± 0.025

Question: For TTGAGGGGAT, which switch fluorescence ratio is on record?
Answer: 1.004 ± 0.0059

Question: How did the switch fluorescence ratio turn out when TTGAGGGTCC was run?
Answer: 1.004 ± 0.0056

Question: TTGAGGTACG was tested. Which switch fluorescence ratio did it give?
Answer: 1.03 ± 0.082

Question: TTGAGGTTA was tested. Which switch fluorescence ratio did it give?
Answer: 1.07 ± 0.069

Question: TTGAGTGTGT was tested. Which switch fluorescence ratio did it give?
Answer: 0.9604 ± 0.0023

Question: How did the switch fluorescence ratio turn out when TTGAGTTAC was run?
Answer: 1.03 ± 0.06

Question: For TTGAGTTTTA, which switch fluorescence ratio is on record?
Answer: 1.01 ± 0.021

Question: TTGATAAAAA was tested. Which switch fluorescence ratio did it give?
Answer: 0.998 ± 0.083

Question: Which switch fluorescence ratio does the source give for TTGATAAGTT here?
Answer: 0.9751 ± 0.0069

Question: Which switch fluorescence ratio does the source give for TTGATAATCT here?
Answer: 1 ± 0.026
